The source of these data is article PMC3828522.

For the assay, the target named is biotin-YY1 spacer peptide (human) (UniProt P25490). The assay is described as follows: SPR.
Chain of biotin-YY1 spacer peptide (human) (P25490 199-228): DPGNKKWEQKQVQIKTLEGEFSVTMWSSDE

Chain of SFMBT2 4MBT domain, human (domain or fragment) (Q5VUG0 whole entry, the tested form may be a part): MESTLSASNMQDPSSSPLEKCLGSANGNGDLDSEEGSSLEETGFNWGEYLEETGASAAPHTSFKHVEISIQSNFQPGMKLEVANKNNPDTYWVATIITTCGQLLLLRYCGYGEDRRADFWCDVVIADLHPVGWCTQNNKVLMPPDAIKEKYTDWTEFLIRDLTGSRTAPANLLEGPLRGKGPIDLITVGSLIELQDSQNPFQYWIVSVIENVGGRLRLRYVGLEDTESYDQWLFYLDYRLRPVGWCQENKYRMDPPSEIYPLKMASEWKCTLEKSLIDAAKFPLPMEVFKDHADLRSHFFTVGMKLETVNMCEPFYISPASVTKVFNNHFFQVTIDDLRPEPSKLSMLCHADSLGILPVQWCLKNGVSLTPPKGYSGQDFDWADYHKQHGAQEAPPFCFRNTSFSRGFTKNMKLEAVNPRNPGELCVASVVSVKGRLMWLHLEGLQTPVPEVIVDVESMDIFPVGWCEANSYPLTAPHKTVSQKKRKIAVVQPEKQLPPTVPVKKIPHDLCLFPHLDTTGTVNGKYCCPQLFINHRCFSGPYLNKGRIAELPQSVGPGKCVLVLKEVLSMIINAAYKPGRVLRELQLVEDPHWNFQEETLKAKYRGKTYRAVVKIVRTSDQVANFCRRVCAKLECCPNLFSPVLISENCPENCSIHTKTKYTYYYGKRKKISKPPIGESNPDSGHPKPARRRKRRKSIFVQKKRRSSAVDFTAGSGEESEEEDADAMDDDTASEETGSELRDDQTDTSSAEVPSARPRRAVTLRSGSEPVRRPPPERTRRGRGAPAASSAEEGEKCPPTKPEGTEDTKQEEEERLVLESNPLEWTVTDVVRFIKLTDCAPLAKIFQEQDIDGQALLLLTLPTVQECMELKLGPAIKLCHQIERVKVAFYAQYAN

As to “SFMBT2 4MBT domain, human (domain or fragment)”, the fold lower affinity than L3MBTL2 and MBTD1 came out at 2 fold; the fold weaker affinity than the Drosophila complex came out at 50 fold.
